Source: patent EP4541891A1, “NOVEL LRP1-BINDING PEPTIDE” (Ichimaru Pharcos Co., Ltd., priority 2022, dated 2025)
Bridge positions count the residues as written; N and C are the ends. Square brackets hold non-standard residues; d marks the D form. Ends that are not written are not given here. Peptide text beside a SMILES is read from it. * marks the point of attachment. 5FAM = O=C1OC2(c3ccc(O)cc3Oc3cc(O)ccc32)c2ccc(C(=O)*)cc21; Biotin = O=C1N[C@H]2[C@H](CS[C@H]2CCCCC(=O)*)N1; Hyp = O=C(O)[C@@H]1C[C@@H](O)CN1; Nle = CCCC[C@H](N)C(=O)O; Aib = CC(C)(N)C(=O)O

test system: LRP1 cluster 4-Fc chimeric proteins; assay: Competitive binding assay by ELISA against Sequence 46; conditions: peptide 2,000 nM versus Sequence 46 (500 nM); time point not stated
Procedure: For comparison between the peptide of Sequence 1 with amino acid substitutions and the peptide of Sequence 2 in terms of the LRP1 binding activity and the resistance to protease degradation, a competitive binding assay by ELISA shown in FIG. 2 was constructed. Immediately (zero hour) or 24 hours after the mixing of the peptide of Sequence 2 or the amino acid-substituted peptide with mouse plasma at 37°C, the mixture was diluted to sufficiently lower the plasma concentration to any desired final concentration, and mixed with Sequence 46 (500 nM). This mixture was subjected to the competitive binding assay described above. The binding of Sequence 46 to the LRP1 cluster 4-Fc chimera proteins competes with the binding of Sequence 2 or the amino acid-substituted peptide to the LRP1 cluster 4-Fc chimera proteins, and thus is inhibited depending on the concentration of Sequence 2 or the amino acid-substituted peptide. That is, the binding activity of Sequence 2 or the amino acid-substituted peptide to the LRP1 cluster 4-Fc chimera proteins is detected as competitive inhibitory activity against the binding of Sequence 46. Regarding the binding value of Sequence 46 to the wells in which the LRP1 cluster 4-Fc chimeric proteins were not captured as 100% inhibitory activity and the binding value of Sequence 46 to the wells in which Sequence 2 or the amino acid-substituted peptide was not added as 0% inhibitory activity, the inhibitory activity values of Sequence 2 and the amino acid-substituted peptide were calculated in %.
Sequence 2 incubated with plasma for zero hour inhibited the binding of Sequence 46 in a concentration-dependent manner. […] However, the binding of Sequence 46 (500 nM) in wells loaded with 2,000 nM equivalent Sequence 2 averaged 50.6%.
Immediately or 24 hours after Sequences 1 to 44 were mixed with mouse plasma at 37°C, the mixtures were diluted to sufficiently lower the plasma concentration to a final concentration of 2,000 nM, and mixed with Sequence 46 (500 nM). The obtained mixtures were subjected to the above-described competitive binding assay. […] Other sequences tended to have diminished inhibitory activities.

Row | Molecule | inhibitory activity
1 | Ac-Lys(5FAM)-Gly-Thr-Pro-Cys-Thr-Tyr-Lys-Tyr-Nle-Leu-Ala-Glu-Nle-^DCys-OH (Ac-K(5FAM)GTPCTYKY[Nle]LAE[Nle][dC]-OH; cysteine pairing not given here) [Sequence 9] | 85.8%
2 | Ac-Lys(5FAM)-Gly-Thr-Pro-Cys-Thr-Tyr-Lys-Tyr-Nle-Leu-Ala-Glu-Nle-Cys)-OH (Ac-K(5FAM)GTPCTYKY[Nle]LAE[Nle]C-OH; not fully specified (bridges); printed as Ac-Lys(5FAM)-Gly-Thr-Pro-Cys-Thr-Tyr-Lys-Tyr-Nle-Leu-Ala-Glu-Nle-Cys)-OH; also: cyclic, bridge type not given here) [Sequence 1] | 70.7%

Now from value to molecule:

Row | inhibitory activity | Molecule
3 | 77.4% | CCCC[C@@H]1NC(=O)[C@H](CCC(=O)O)NC(=O)[C@H](C)NC(=O)[C@H](CC(C)C)NC(=O)[C@H](CCCC)NC(=O)[C@H](Cc2ccc(O)cc2)NC(=O)[C@H](CCCNC(=N)N)NC(=O)[C@H](Cc2ccc(O)cc2)NC(=O)[C@H]([C@@H](C)O)NC(=O)[C@@H](NC(=O)[C@@H]2CCCN2C(=O)[C@@H](NC(=O)CNC(=O)[C@H](CCCCNC(=O)c2ccc3c(c2)C(=O)OC32c3ccc(O)cc3Oc3cc(O)ccc32)NC(C)=O)[C@@H](C)O)CSSC[C@@H](C(=O)O)NC1=O [Sequence 24, Ac-Lys(5FAM)-Gly-Thr-Pro-c(Cys-Thr-Tyr-Arg-Tyr-Nle-Leu-Ala-Glu-Nle-Cys)-OH] (Ac-K(5FAM)GTPCTYRY[Nle]LAE[Nle]C-OH; disulfide 5-15)
4 | 91.9% | CCCC[C@@H]1NC(=O)[C@H](CCC(=O)O)NC(=O)[C@H](C)NC(=O)[C@H](CC(C)C)NC(=O)[C@H](CCCC)NC(=O)[C@H](Cc2ccc(O)cc2)NC(=O)[C@H](CCCCN)NC(=O)[C@H](Cc2ccc(O)cc2)NC(=O)[C@H]([C@@H](C)O)NC(=O)[C@H](NC(=O)[C@@H]2CCCN2C(=O)[C@@H](NC(=O)CNC(=O)[C@H](CCCCNC(=O)c2ccc3c(c2)C(=O)OC32c3ccc(O)cc3Oc3cc(O)ccc32)NC(C)=O)[C@@H](C)O)CSSC[C@@H](C(=O)O)NC1=O [Sequence 6, Ac-Lys(5FAM)-Gly-Thr-Pro-c(^DCys-Thr-Tyr-Lys-Tyr-Nle-Leu-Ala-Glu-Nle-Cys)-OH] (Ac-K(5FAM)GTP[dC]TYKY[Nle]LAE[Nle]C-OH; disulfide 5-15)
5 | 83.5% | CCCC[C@@H]1NC(=O)[C@H](Cc2ccc(O)cc2)NC(=O)[C@H](CCCCN)NC(=O)[C@H](Cc2ccc(O)cc2)NC(=O)[C@H]([C@@H](C)O)NC(=O)[C@@H](NC(=O)[C@@H]2CCCN2C(=O)[C@@H](NC(=O)CNC(=O)[C@H](CCCCNC(=O)c2ccc3c(c2)C(=O)OC32c3ccc(O)cc3Oc3cc(O)ccc32)NC(C)=O)[C@@H](C)O)CSSC[C@@H](C(=O)O)NC(=O)[C@@H]2CCCN2C(=O)[C@H](CCCC)NC(=O)[C@H](CCC(=O)O)NC(=O)[C@H](C)NC(=O)[C@H](CC(C)C)NC1=O [Sequence 43, Ac-Lys(5FAM)-Gly-Thr-Pro-c(Cys-Thr-Tyr-Lys-Tyr-Nle-Leu-Ala-Glu-Nle-Pro-Cys)-OH] (Ac-K(5FAM)GTPCTYKY[Nle]LAE[Nle]PC-OH; disulfide 5-16)
6 | 87.6% | Ac-Lys(5FAM)-Gly-Thr-Pro-c(^DCys-Thr-Tyr-Lys-Tyr-Nle-Leu-Ala-Glu-Nle-Cys)-OH (KGTPCTYKYXLAEXC; N-acetyl, Lys(5FAM), cyclic, D-residue, Nle residues; CROSSLNK 5..15: note = methylene thioactal (-S-CH2-S-); SITE 5: note = D-Cys; SITE 10: note = Nle; SITE 14: note = Nle; MOD_RES 1: note = N-acetyllysine labeled with 5-FAM) [Sequence 7]
7 | 82.0% | CCCC[C@@H]1NC(=O)[C@H](CCC(=O)O)NC(=O)C(C)(C)NC(=O)[C@H](CC(C)C)NC(=O)[C@H](CCCC)NC(=O)[C@H](Cc2ccc(O)cc2)NC(=O)[C@H](CCCCN)NC(=O)[C@H](Cc2ccc(O)cc2)NC(=O)[C@H]([C@@H](C)O)NC(=O)[C@@H](NC(=O)[C@@H]2CCCN2C(=O)[C@@H](NC(=O)CNC(=O)[C@H](CCCCNC(=O)c2ccc3c(c2)C(=O)OC32c3ccc(O)cc3Oc3cc(O)ccc32)NC(C)=O)[C@@H](C)O)CSSC[C@@H](C(=O)O)NC1=O [Sequence 34, Ac-Lys(5FAM)-Gly-Thr-Pro-c(Cys-Thr-Tyr-Lys-Tyr-Nle-Leu-Aib-Glu-Nle-Cys)-OH] (Ac-K(5FAM)GTPCTYKY[Nle]L[Aib]E[Nle]C-OH; disulfide 5-15)

target: LRP1 cluster 4-Fc chimeric proteins (UniProt Q07954); assay: ELISA, LRP1 cluster 4-Fc captured, biotin peptide detected with SA-HRP; conditions: not given
UniProt Q07954, sequence (Q07954 3293-3783, stated change not applied): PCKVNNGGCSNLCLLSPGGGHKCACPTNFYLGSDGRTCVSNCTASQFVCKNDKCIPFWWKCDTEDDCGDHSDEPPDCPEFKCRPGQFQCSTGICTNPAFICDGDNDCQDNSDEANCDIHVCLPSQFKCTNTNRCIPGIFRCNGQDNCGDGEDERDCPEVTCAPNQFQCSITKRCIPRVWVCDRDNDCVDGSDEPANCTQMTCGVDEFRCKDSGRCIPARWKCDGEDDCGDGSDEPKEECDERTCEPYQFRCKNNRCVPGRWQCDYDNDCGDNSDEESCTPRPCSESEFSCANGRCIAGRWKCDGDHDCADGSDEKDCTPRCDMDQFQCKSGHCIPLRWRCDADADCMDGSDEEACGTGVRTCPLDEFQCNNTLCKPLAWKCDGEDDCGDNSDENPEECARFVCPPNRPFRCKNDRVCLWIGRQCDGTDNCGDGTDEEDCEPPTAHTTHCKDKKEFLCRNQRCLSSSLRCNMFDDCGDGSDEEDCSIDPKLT

Row | EC50 | Molecule
8 | 11 nM | Ac-K(Biotin)GTPCTYKY[Nle]LAE[Nle]C (disulfide 5-15) [SEQUENCE 46]
9 | 10.5 nM | Ac-K(Biotin)GTPCTYKY[Nle]LAE[Nle]C (cysteine pairing not given here) [SEQUENCE 45]

target: LRP1 cluster 4-Fc chimeric proteins (UniProt Q07954); assay: competitive ELISA, LRP1 cluster 4-Fc captured; peptide 2,000 nM against biotin-Sequence 46 500 nM; conditions: not given

Row | inhibitory activity (%) | Molecule
10 | 91.9% | Ac-K(5FAM)GTP[dC]TYKY[Nle]LAE[Nle]C (disulfide 5-15) [SEQUENCE 6]
11 | 77.4% | Ac-K(5FAM)GTPCTYRY[Nle]LAE[Nle]C (disulfide 5-15) [SEQUENCE 24]
12 | 79.1% | Ac-K(5FAM)GTPC[Hyp]YKY[Nle]LAE[Nle]C (disulfide 5-15) [SEQUENCE 19]
13 | 85.8% | Ac-K(5FAM)GTPCTYKY[Nle]LAE[Nle][dC] (cysteine pairing not given here) [SEQUENCE 9]
14 | 83.5% | Ac-K(5FAM)GTPCTYKY[Nle]LAE[Nle]PC (disulfide 5-16) [SEQUENCE 43]
15 | 87.6% | Ac-K(5FAM)GTP[dC]TYKY[Nle]LAE[Nle]C (bridge 5-15 via S‑C‑S (methylene)) [SEQUENCE 7]
16 | 82% | Ac-K(5FAM)GTPCTYKY[Nle]L[Aib]E[Nle]C (disulfide 5-15) [SEQUENCE 34]
17 | 70.7% | Ac-K(5FAM)GTPCTYKY[Nle]LAE[Nle]C (cysteine pairing not given here) [SEQUENCE 1]
